Source: US20170165337A1 (IMMATICS BIOTECHNOLOGIES, published 2017)

B1: ILSQPTPSL (peptide)
peptide: ILSQPTPSL
B2: LLVDVEPKV (peptide)
peptide: LLVDVEPKV
B3: ILYGTQFVL (peptide)
peptide: ILYGTQFVL
B4: LVYEAPETV (peptide)
peptide: LVYEAPETV
B5: TIAPVTVAV (peptide)
peptide: TIAPVTVAV
B6: ILLNPAYDVYL (peptide)
peptide: ILLNPAYDVYL
B7: GLWGTVVNI (peptide)
peptide: GLWGTVVNI
B8: YLYQEQYFI (peptide)
peptide: YLYQEQYFI
B9: ALAKPPVVSV (peptide)
peptide: ALAKPPVVSV
B10: FILPSSLYL (peptide)
peptide: FILPSSLYL
B11: ILEEQPMDMLL (peptide)
peptide: ILEEQPMDMLL
B12: ALLDQLHTLL (peptide)
peptide: ALLDQLHTLL
B13: VMIQHVENL (peptide)
peptide: VMIQHVENL
B14: ILLNEDDLVTI (peptide)
peptide: ILLNEDDLVTI
B15: ALATHILSL (peptide)
peptide: ALATHILSL
B16: LLAELPASVHA (peptide)
peptide: LLAELPASVHA
B17: YLLEEKIASL (peptide)
peptide: YLLEEKIASL
B18: MLLEHGITL (peptide)
peptide: MLLEHGITL
B19: LMADLEGLHL (peptide)
peptide: LMADLEGLHL
B20: FLDMTNWNL (peptide)
peptide: FLDMTNWNL
B21: VLIKWFPEV (peptide)
peptide: VLIKWFPEV
B22: AASPIITLV (peptide)
peptide: AASPIITLV
B23: YLPYIFPNI (peptide)
peptide: YLPYIFPNI
B24: YMYEKESEL (peptide)
peptide: YMYEKESEL
B25: LAIVPVNTL (peptide)
peptide: LAIVPVNTL
B26: RLLEFELAQL (peptide)
peptide: RLLEFELAQL
B27: SLITPLQAV (peptide)
peptide: SLITPLQAV
B28: YLGPVSPSL (peptide)
peptide: YLGPVSPSL
B29: YLIEPDVELQRI (peptide)
peptide: YLIEPDVELQRI
B30: YMAVTTQEV (peptide)
peptide: YMAVTTQEV
B31: ELLEGSEIYL (peptide)
peptide: ELLEGSEIYL
B32: ILQDLTFVHL (peptide)
peptide: ILQDLTFVHL
B33: VLLPQETAEIHL (peptide)
peptide: VLLPQETAEIHL
B34: VVAEELENV (peptide)
peptide: VVAEELENV
B35: KLLEEICNL (peptide)
peptide: KLLEEICNL
B36: FIDKFTPPV (peptide)
peptide: FIDKFTPPV
B37: ALSEKLARL (peptide)
peptide: ALSEKLARL
B38: TLENGVPCV (peptide)
peptide: TLENGVPCV
B39: LLYNSTDPTL (peptide)
peptide: LLYNSTDPTL
B40: ILEENIPVL (peptide)
peptide: ILEENIPVL
B41: AAALIIHHV (peptide)
peptide: AAALIIHHV
B42: LLLTKPTEA (peptide)
peptide: LLLTKPTEA
B43: FLWEEKFNSL (peptide)
peptide: FLWEEKFNSL
B44: ALVFELHYV (peptide)
peptide: ALVFELHYV
B45: QVIPQLQTV (peptide)
peptide: QVIPQLQTV
B46: AVLQAVTAV (peptide)
peptide: AVLQAVTAV
B47: LMKDCEAEV (peptide)
peptide: LMKDCEAEV
B48: SLDLFNCEV (peptide)
peptide: SLDLFNCEV
B49: LLFPQIEGIKI (peptide)
peptide: LLFPQIEGIKI
B50: SLYSALQQA (peptide)
peptide: SLYSALQQA
B51: VIAELPPKV (peptide)
peptide: VIAELPPKV
B52: ELMHGVAGV (peptide)
peptide: ELMHGVAGV
B53: VLAFENPQV (peptide)
peptide: VLAFENPQV
B54: LLSTLHLLV (peptide)
peptide: LLSTLHLLV
B55: SLYDVSRMYV (peptide)
peptide: SLYDVSRMYV
B56: ALDIMIPMV (peptide)
peptide: ALDIMIPMV
B57: GLAESTGLLAV (peptide)
peptide: GLAESTGLLAV
B58: FIMDDPAGNSYL (peptide)
peptide: FIMDDPAGNSYL
B59: VLAFLVHEL (peptide)
peptide: VLAFLVHEL
B60: ATPMPTPSV (peptide)
peptide: ATPMPTPSV
B61: NLLAHIWAL (peptide)
peptide: NLLAHIWAL
B62: FLVEPQEDTRL (peptide)
peptide: FLVEPQEDTRL
B63: VLMDGSVKL (peptide)
peptide: VLMDGSVKL
B64: VLMWEIYSL (peptide)
peptide: VLMWEIYSL
B65: IILPVEVEV (peptide)
peptide: IILPVEVEV
B66: ALEDRVWEL (peptide)
peptide: ALEDRVWEL
B67: ALLQKLQQL (peptide)
peptide: ALLQKLQQL
B68: VLVQVSPSL (peptide)
peptide: VLVQVSPSL
B69: NLQVTQPTV (peptide)
peptide: NLQVTQPTV
B70: VTLEFPQLIRV (peptide)
peptide: VTLEFPQLIRV
B71: FIAPTGHSL (peptide)
peptide: FIAPTGHSL
B72: VLWELAHLPTL (peptide)
peptide: VLWELAHLPTL
B73: SLASIHVPL (peptide)
peptide: SLASIHVPL

Molecular target: T1, HLA-A*02:01 (human)
T1 construct: MHC class I monomer of the UV-ligand exchange assay; also called peptide-receptive MHC molecules; MHC class I
Test: UV peptide-exchange ELISA
In short: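 Peptide-MHC complexes formed by UV-mediated exchange of a UV-cleavable peptide for the test peptide; exchange yield quantified by β2m ELISA. Diluted 100-fold, captured on streptavidin-coated plates 1 h at 37 °C, detected with HRP anti-β2m and TMB at 450 nm against refolded HLA-A*02:01 monomer standards (15-500 ng/ml).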

peptide exchange yield	Binder
50 to 75%	B1
50 to 75%	B2
50 to 75%	B3
50 to 75%	B4
≥ 75%	B5
50 to 75%	B6
50 to 75%	B7
50 to 75%	B8
50 to 75%	B9
50 to 75%	B10
50 to 75%	B11
≥ 75%	B12
50 to 75%	B13
50 to 75%	B14
50 to 75%	B15
50 to 75%	B16
50 to 75%	B17
50 to 75%	B18
50 to 75%	B19
≥ 75%	B20
≥ 75%	B21
50 to 75%	B22
50 to 75%	B23
20 to 50%	B24
10 to 20%	B25

peptide exchange yield	Binder
50 to 75%	B26
50 to 75%	B27
50 to 75%	B28
50 to 75%	B29
≥ 75%	B30
50 to 75%	B31
50 to 75%	B32
≥ 75%	B33
20 to 50%	B34
≥ 75%	B35
≥ 75%	B36
50 to 75%	B37
50 to 75%	B38
50 to 75%	B39
50 to 75%	B40
50 to 75%	B41
50 to 75%	B42
≥ 75%	B43
50 to 75%	B44
50 to 75%	B45
50 to 75%	B46
50 to 75%	B47
≥ 75%	B48
50 to 75%	B49
50 to 75%	B50

peptide exchange yield	Binder
20 to 50%	B51
50 to 75%	B52
50 to 75%	B53
50 to 75%	B54
≥ 75%	B55
50 to 75%	B56
50 to 75%	B57
50 to 75%	B58
≥ 75%	B59
20 to 50%	B60
50 to 75%	B61
50 to 75%	B62
≥ 75%	B63
50 to 75%	B64
50 to 75%	B65
50 to 75%	B66
50 to 75%	B67
50 to 75%	B68
50 to 75%	B69
50 to 75%	B70
20 to 50%	B71
50 to 75%	B72
50 to 75%	B73
